The text below walks through data of patent US20090068110A1, “ANTIBODIES TO INSULIN-LIKE GROWTH FACTOR RECEPTOR” (Genentech, Inc., priority 2006, published 2009).

“Also recorded” adds a separate entry of the source.

By IC50 is commonly meant the midpoint of a concentration-inhibition curve.

The assay concerns the target T1, human IGF-1R-ECD (Homo sapiens, UniProt P08069).
T1 construct: containing the extracellular domain (ECD, amino acids 1-902) tagged with 10 or 12 histidine residues at the carboxyl terminus; His10 or His12 (C); made in house; host or cells: CHO cells
Put plainly: phage-competition ELISA (phage IC50). It counts as binding. To be noted: for IC50: YW95 phage-derived clones displayed as bivalent Fab-Zip on phage, read-out: phage IC50. The method, then: MAXISORP™ microtiter plates were coated with human IGF-1R-ECD at 5 μg/ml in PBS overnight and then blocked with CASEIN BLOCKER™ reagent (Pierce Biotechnology, Inc.). Phage from culture supernatants were incubated with serially diluted IGF-1R-ECD in PBS with 0.05% TWEEN 20™ surfactant (PBST) containing 1% bovine serum albumin (BSA) in a tissue-culture microtiter plate for 1 hour, after which 80 μl of the mixture was transferred to the target-coated wells for 15 minutes to capture unbound phage. The plate was washed with PBST, and HRP-conjugated anti-M13 (Amersham Pharmacia Biotech) was added (1:5000 in PBST containing 1% BSA) for 40 minutes. The plate was washed with PBST and developed by adding tetramethylbenzidine (TMB) substrate (Kirkegaard and Perry Laboratories, Gaithersburg, Md.). The absorbance at 450 nm was plotted as a function of target concentration in solution to determine an IC50. […] For the humanized hybridoma-derived clones, 2B4, 9F2, and 10H5, phage-Fab was used.
This assay was conducted as described in Section 1-II-A-(4) of this Example. For the YW95-phage-derived clones from the VH/VL phage library, phage-Fab-Zip was used.
A general note: ELISA stands for enzyme-linked immunosorbent assay.

B1: YW95.3: anti-IGF-1R phage-display clone from VH/VL library; VL SEQ ID NO:66, VH SEQ ID NO:70 (antibody, V domains shown)
VH: EVQLVESGGGLVQPGGSLRLSCAASGFTFSSYAMSWVRQAPGKGLEWVSRISPSGGSTYYADSVKGRFTISADTSKNTAYLQMNSLRAEDTAVYYCAREHYFHWGGMDVWGQGTL
VL: DIQMTQSPSSLSASVGDRVTITCRASQSISSYLAWYQQKPGKAPKLLIYGASSRASGVPSRFSGSGSGTDFTLTISSLQPEDFATYYCQQYYSSPLTFGQGTKVEIKR
modifications: sequence is synthesized
Take B1: the IC50 is 20 nM.

B2: YW95.81: anti-IGF-1R phage-display clone from VH/VL library; VL SEQ ID NO:68, VH SEQ ID NO:72 (antibody, V domains shown)
VH: EVQLVESGGGLVQPGGSLRLSCAASGFSFSSQGISWVRQAPGKGLEWVSTISYDGSTYYADSVKGRFTISADTSKNTAYLQMNSLRAEDTAVYYCARQFMLWGKQFGMDVWGQGTL
VL: DIQMTQSPSSLSASVGDRVTITCRASQSISSYLAWYQQKPGKAPKLLIYGASSRASGVPSRFSGSGSGTDFTLTISSLQPEDFATYYCQQRFSVPFTFGQGTKVEIKR
modifications: sequence is synthesized
Consider B2, for which the IC50 was 20 nM.

B3: YW95.87: anti-IGF-1R phage-display clone from VH/VL library; VL SEQ ID NO:69, VH SEQ ID NO:73 (antibody, V domains shown)
VH: EVQLVESGGGLVQPGGSLRLSCAASGFTFSSYAMSWVRQAPGKGLEWVSRISPSGGSTYYADSVKGRFTISADTSKNTAYLQMNSLRAEDTAVYYCARESYYEWGAMDVWGQGTL
VL: DIQMTQSPSSLSASVGDRVTITCRASQSISSYLAWYQQKPGKAPKLLIYGASSRASGVPSRFSGSGSGTDFTLTISSLQPEDFATYYCQQYYSSPLTFGQGTKVEIKR
modifications: sequence is synthesized
Take B3: the IC50 turned out to be 20 nM.

B4: h2B4.vX: humanized anti-IGF-1R antibody, direct HVR graft of murine 2B4; VL SEQ ID NO:44, VH SEQ ID NO:47 (antibody, V domains shown)
VH: EVQLVESGGGLVQPGGSLRLSCAASGYNLANYGLNWVRQAPGKGLEWVGWINTNTGAPTYAEEFKGRFTISADTSKNTAYLQMNSLRAEDTAVYYCARSIYYYASRYFNVWGQGTL
VL: DIQMTQSPSSLSASVGDRVTITCRASQDISNYLNWYQQKPGKAPKLLIYYTSRLHSGVPSRFSGSGSGTDFTLTISSLQPEDFATYYCQQGNTLPWTFGQGTKVEIKR
modifications: sequence is synthesized
Take B4: under “monovalent phage-Fab, after HVR grafting”, the “binding affinity (phage IC50) against IGF-1R-ECD, in words” value is “micromolar binding affinity; also recorded: decreased into the micromolar range”.
